Legend:
Test in all cases: cell-based or functional assay
[1] = molecular target: FVIIa variant CB554 D196K (human) (UniProt P08709)
[2] = molecular target: FVIIa variant CB602 D196W (human) (UniProt P08709)
[3] = molecular target: FVIIa variant CB579 D196R/R290E (human) (UniProt P08709)
[4] = molecular target: FVIIa variant CB689 K197E/G237V (human) (UniProt P08709)
[5] = molecular target: FVIIa variant CB612 D196F/K197L (human) (UniProt P08709)
[6] = molecular target: FVIIa variant CB588 D196R/K197E/K199E/R290E (human) (UniProt P08709)
[7] = molecular target: FVIIa variant CB698 R290Q (human) (UniProt P08709)
[8] = molecular target: FVIIa variant CB587 D196K/K197E/K199E (human) (UniProt P08709)
[9] = molecular target: FVIIa variant CB670 G237V/K341Q (human) (UniProt P08709)
[10] = molecular target: FVIIa variant CB597 K197F (human) (UniProt P08709)
[11] = molecular target: FVIIa variant CB557 K197D (human) (UniProt P08709)
[12] = molecular target: FVIIa variant CB559 K197A (human) (UniProt P08709)
[13] = molecular target: FVIIa variant CB606 G237T (human) (UniProt P08709)
[14] = molecular target: FVIIa variant CB593 V158D/E296V/M298Q (human) (UniProt P08709)
[15] = molecular target: FVIIa variant CB563 K199E (human) (UniProt P08709)
[16] = molecular target: FVIIa variant CB615 D196F/K197E (human) (UniProt P08709)
[17] = molecular target: FVIIa variant CB617 D196V/K197E (human) (UniProt P08709)
[18] = molecular target: FVIIa variant CB734 K341M (human) (UniProt P08709)
[19] = molecular target: FVIIa variant CB595 K197I (human) (UniProt P08709)
[20] = molecular target: FVIIa variant CB600 D196F (human) (UniProt P08709)
[21] = molecular target: FVIIa variant CB637 K197E/K341Q (human) (UniProt P08709)
[22] = molecular target: FVIIa variant CB558 K197E (human) (UniProt P08709)
[23] = molecular target: FVIIa variant CB555 D196R (human) (UniProt P08709)
[24] = molecular target: FVIIa variant CB580 D196K/R290E (human) (UniProt P08709)
[25] = molecular target: FVIIa variant CB569 K341R (human) (UniProt P08709)
[26] = molecular target: FVIIa variant CB696 G237V/M298Q/K341Q (human) (UniProt P08709)
[27] = molecular target: FVIIa variant CB581 D196R/R290D (human) (UniProt P08709)
[28] = molecular target: wild-type Factor VII polypeptide (CB553-02), activated (FVIIa) (human) (UniProt P08709)
[29] = molecular target: FVIIa variant CB591 L305V/S314E/L337A/F374Y (human) (UniProt P08709)
[30] = molecular target: FVIIa variant CB701 R290V (human) (UniProt P08709)
[31] = molecular target: FVIIa variant CB556 D196A (human) (UniProt P08709)
[32] = molecular target: FVIIa variant CB562 K199D (human) (UniProt P08709)
[33] = molecular target: FVIIa variant CB671 K197E/G237V/K341Q (human) (UniProt P08709)
[34] = molecular target: FVIIa variant CB733 K341N (human) (UniProt P08709)
[35] = molecular target: FVIIa variant CB565 T239A (human) (UniProt P08709)
[36] = molecular target: FVIIa variant CB692 K197E/G237V/M298Q/K341Q (human) (UniProt P08709)

IC50 of TFPI inhibition of FVIIa/TF [1]: 45 nM
TFPI fold resistance (fold vs wild-type FVIIa) [1]: 0.6
pIC50 of TFPI inhibition of FVIIa/TF [1]: 7.4
TFPI fold resistance (fold vs wild-type FVIIa) [2]: < 0.3
IC50 of TFPI inhibition of FVIIa/TF [3]: 28 nM
TFPI fold resistance (fold vs wild-type FVIIa) [3]: 0.4
pIC50 of TFPI inhibition of FVIIa/TF [3]: 7.6
TFPI fold resistance (fold vs wild-type FVIIa) [4]: 1.7
TFPI fold resistance (fold vs wild-type FVIIa) [5]: < 0.3
IC50 of TFPI inhibition of FVIIa/TF [6]: 28 nM
TFPI fold resistance (fold vs wild-type FVIIa) [6]: 0.4
pIC50 of TFPI inhibition of FVIIa/TF [6]: 7.6
TFPI fold resistance (fold vs wild-type FVIIa) [7]: 1.2
IC50 of TFPI inhibition of FVIIa/TF [8]: 20 nM
TFPI fold resistance (fold vs wild-type FVIIa) [8]: 0.3
pIC50 of TFPI inhibition of FVIIa/TF [8]: 7.7
TFPI fold resistance (fold vs wild-type FVIIa) [9]: 14.1
TFPI fold resistance (fold vs wild-type FVIIa) [10]: < 0.3
IC50 of TFPI inhibition of FVIIa/TF [11]: 220 nM
TFPI fold resistance (fold vs wild-type FVIIa) [11]: 3
pIC50 of TFPI inhibition of FVIIa/TF [11]: 6.7
IC50 of TFPI inhibition of FVIIa/TF [12]: 53 nM
TFPI fold resistance (fold vs wild-type FVIIa) [12]: 0.7
pIC50 of TFPI inhibition of FVIIa/TF [12]: 7.3
TFPI fold resistance (fold vs wild-type FVIIa) [13]: 0.3
IC50 of TFPI inhibition of FVIIa/TF [14]: 41 nM
TFPI fold resistance (fold vs wild-type FVIIa) [14]: 0.8
pIC50 of TFPI inhibition of FVIIa/TF [14]: 7.4
IC50 of TFPI inhibition of FVIIa/TF [15]: 33 nM
TFPI fold resistance (fold vs wild-type FVIIa) [15]: 1.3
pIC50 of TFPI inhibition of FVIIa/TF [15]: 7.5
TFPI fold resistance (fold vs wild-type FVIIa) [16]: < 0.3
TFPI fold resistance (fold vs wild-type FVIIa) [17]: < 0.3
TFPI fold resistance (fold vs wild-type FVIIa) [18]: 4.4
TFPI fold resistance (fold vs wild-type FVIIa) [19]: 0.8
TFPI fold resistance (fold vs wild-type FVIIa) [20]: < 0.3
TFPI fold resistance (fold vs wild-type FVIIa) [21]: 80.7
IC50 of TFPI inhibition of FVIIa/TF [22]: 310 nM
TFPI fold resistance (fold vs wild-type FVIIa) [22]: 1.3
pIC50 of TFPI inhibition of FVIIa/TF [22]: 6.5
IC50 of TFPI inhibition of FVIIa/TF [23]: 37 nM
TFPI fold resistance (fold vs wild-type FVIIa) [23]: 0.5
pIC50 of TFPI inhibition of FVIIa/TF [23]: 7.4
IC50 of TFPI inhibition of FVIIa/TF [24]: 52 nM
TFPI fold resistance (fold vs wild-type FVIIa) [24]: 0.7
pIC50 of TFPI inhibition of FVIIa/TF [24]: 7.3
IC50 of TFPI inhibition of FVIIa/TF [25]: 300 nM
TFPI fold resistance (fold vs wild-type FVIIa) [25]: 4.1
pIC50 of TFPI inhibition of FVIIa/TF [25]: 6.5
TFPI fold resistance (fold vs wild-type FVIIa) [26]: 3.2
IC50 of TFPI inhibition of FVIIa/TF [27]: 32 nM
TFPI fold resistance (fold vs wild-type FVIIa) [27]: 0.4
pIC50 of TFPI inhibition of FVIIa/TF [27]: 7.5
IC50 of TFPI inhibition of FVIIa/TF [28]: 88 nM
TFPI fold resistance (fold vs wild-type FVIIa) [28]: 1
pIC50 of TFPI inhibition of FVIIa/TF [28]: 7.1
IC50 of TFPI inhibition of FVIIa/TF [29]: 43 nM
TFPI fold resistance (fold vs wild-type FVIIa) [29]: 0.6
pIC50 of TFPI inhibition of FVIIa/TF [29]: 7.4
TFPI fold resistance (fold vs wild-type FVIIa) [30]: 2.5
IC50 of TFPI inhibition of FVIIa/TF [31]: 5 nM
TFPI fold resistance (fold vs wild-type FVIIa) [31]: < 0.3
pIC50 of TFPI inhibition of FVIIa/TF [31]: 8.3
IC50 of TFPI inhibition of FVIIa/TF [32]: 63 nM
TFPI fold resistance (fold vs wild-type FVIIa) [32]: 0.9
pIC50 of TFPI inhibition of FVIIa/TF [32]: 7.2
TFPI fold resistance (fold vs wild-type FVIIa) [33]: 18.9
TFPI fold resistance (fold vs wild-type FVIIa) [34]: 10.7
IC50 of TFPI inhibition of FVIIa/TF [35]: 320 nM
TFPI fold resistance (fold vs wild-type FVIIa) [35]: 4.5
pIC50 of TFPI inhibition of FVIIa/TF [35]: 6.5
TFPI fold resistance (fold vs wild-type FVIIa) [36]: 15.2
Substance: Human Recombinant TFPI (R&D Systems) (from UniProt P10646 29-282)

Reference: patent US20090098103A1
